Measured values published in article PMC10778931, “Structure–Functional Examination of Novel Ribonucleoside Hydrolase C (RihC) from Limosilactobacillus reuteri LR1” (International Journal of Molecular Sciences, 2023).

What was measured:
[1] = substrate: Nc1ncnc2c1ncn2[C@@H]1O[C@H](CO)[C@@H](O)[C@H]1O; assay: HILIC-HPLC of released nucleobase, Michaelis-Menten fit; type: biochemical, Limosilactobacillus reuteri; conditions: Tris-HCl pH 7.5
From the text: (§1) HILIC-HPLC of released nucleobase, Michaelis-Menten fit on LreRihC_HisC

[2] = substrate: O=c1[nH]c(=O)c2ncn([C@@H]3O[C@H](CO)[C@@H](O)[C@H]3O)c2[nH]1; assay: as above; type: biochemical, Limosilactobacillus reuteri; conditions: Tris-HCl pH 7.5
From the text: as §1

[3] = substrate: OC[C@H]1O[C@@H](n2cnc3c(O)ncnc32)[C@H](O)[C@@H]1O; assay: as above; type: biochemical, Limosilactobacillus reuteri; conditions: Tris-HCl pH 7.5
From the text: as §1

purified protein = substrate: Nc1ccn([C@@H]2O[C@H](CO)[C@@H](O)[C@H]2O)c(=O)n1; assay: purified protein; conditions: Tris-HCl pH 7.5
[4] = target: the molecule itself; assay: SEC; analytical gel filtration on HiLoad 16/600 Superdex 200 pg, 1 mg of sample applied, mass read from a calibration curve (Gel Filtration Calibration Kit HMW)
[5] = substrate: Nc1ncnc2c1ncn2[C@@H]1O[C@H](CO)[C@@H](O)[C@H]1O; assay: HILIC-HPLC of released nucleobase, Michaelis-Menten fit; type: biochemical, Limosilactobacillus reuteri; conditions: Tris-HCl pH 7.5; remark: listed apart in the source
From the text: (§2) HILIC-HPLC of released nucleobase, Michaelis-Menten fit on LreRihC_HisN

[6] = substrate: O=c1[nH]c(=O)c2ncn([C@@H]3O[C@H](CO)[C@@H](O)[C@H]3O)c2[nH]1; assay: as above; type: biochemical, Limosilactobacillus reuteri; conditions: Tris-HCl pH 7.5; remark: listed apart in the source
From the text: as §2

[7] = substrate: OC[C@H]1O[C@@H](n2cnc3c(O)ncnc32)[C@H](O)[C@@H]1O; assay: as above; type: biochemical, Limosilactobacillus reuteri; conditions: Tris-HCl pH 7.5; remark: listed apart in the source
From the text: as §2

[8] = substrate: O=c1ccn([C@@H]2O[C@H](CO)[C@@H](O)[C@H]2O)c(=O)[nH]1; assay: as above; type: biochemical, Limosilactobacillus reuteri; conditions: Tris-HCl pH 7.5
From the text: as §2

B1: LreRihC_HisC (Limosilactobacillus reuteri) (protein)
chain: MTTKIIMDTDPGIDDAAALTMAINDPSLDLKLVTTVAGNVTADKTTANALKIIHFFGKDIPVAAGAKQPLIKPFEDAARIHGESGMPGYDFGDDYGKPLDKTAVEALHDAIMAEDEVILVPTGSYTNIALLFSEYPEVKSHIKQIVAMGGSFSGGNMTSAAEFNVFTDPDAAKIMYNAGVPIVTVGLDVTLKALLTADTIEKLGSLNKTGEMLHGLITHYNDGNDQGRPMHDVNTIFYLLHPEAFTTKDMWVDIQTDGPAIGATVGDIRAAYHDGKTNAKVCLDIDAEYFNKWFLEEVSKMK
notes: E. coli BL21(DE3), pET24a(+); tetramer (123 kDa)
B1 showed a Km [1] of 480 ± 90 µM, a kcat [1] of 65 ± 7 s⁻¹ and a Km [2] of 1300 ± 200 µM. The kcat [2] was 40 ± 6 s⁻¹, the Km [3] was 2600 ± 600 µM and the kcat [3] was 18 ± 6 s⁻¹. It also gave a Km (purified protein) of 620 ± 60 µM and a kcat (purified protein) of 58 ± 6 s⁻¹.

B2: ribonucleoside hydrolase C from Limosilactobacillus reuteri LR1 with the addition of His-tag to the N-terminus of the enzyme (enzyme, UniProt A5JJT3 1-302, looked up)
chain: MTTKIIMDTDPGIDDAAALTMAINDPSLDLKLVTTVAGNVTADKTTANALKIIHFFGKDIPVAAGAKQPLIKPFEDAARIHGESGMPGYDFGDDYGKPLDKTAVEALHDAIMAEDEVILVPTGSYTNIALLFSEYPEVKSHIKQIVAMGGSFSGGNMTSAAEFNVFTDPDAAKIMYNAGVPIVTVGLDVTLKALLTADTIEKLGSLNKTGEMLHGLITHYNDGNDQGRPMHDVNTIFYLLHPEAFTTKDMWVDIQTDGPAIGATVGDIRAAYHDGKTNAKVCLDIDAEYFNKWFLEEVSKMK
notes: Ribonucleoside hydrolase C (RihC) of Limosilactobacillus reuteri LR1, cloned from genomic DNA with primers from the start codon to the stop codon; 308 residues and 33.38 kDa with the His-tag; The residue numbers printed for the crystal structure (D16, D20, D21, loop DGNDQ 228-232) seem to count on the tagged construct (surmised from the primer); Each subunit holds one Ca2+ ion; source: E. coli …
With B2 the “stoichiometry N” value [4] was 4.

B3: ribonucleoside hydrolase C from Limosilactobacillus reuteri LR1 with the addition of His-tag to the C-terminus of the enzyme (enzyme, UniProt A5JJT3 1-302, looked up)
chain: MTTKIIMDTDPGIDDAAALTMAINDPSLDLKLVTTVAGNVTADKTTANALKIIHFFGKDIPVAAGAKQPLIKPFEDAARIHGESGMPGYDFGDDYGKPLDKTAVEALHDAIMAEDEVILVPTGSYTNIALLFSEYPEVKSHIKQIVAMGGSFSGGNMTSAAEFNVFTDPDAAKIMYNAGVPIVTVGLDVTLKALLTADTIEKLGSLNKTGEMLHGLITHYNDGNDQGRPMHDVNTIFYLLHPEAFTTKDMWVDIQTDGPAIGATVGDIRAAYHDGKTNAKVCLDIDAEYFNKWFLEEVSKMK
notes: 308 residues and 33.38 kDa with the His-tag; PDB 8QND is the structure of the N-terminally tagged form of the same protein; source: E. coli BL21(DE3), purified (HisTrap FF, desalted on Sephadex G25); not shown: His6, C-terminal, kept
With B3 the “stoichiometry N” value [4] was 4.

B4: LreRihC_HisN (Limosilactobacillus reuteri) (protein)
chain: TTKIIMDTDPGIDDAAALTMAINDPSLDLKLVTTVAGNVTADKTTANALKIIHFFGKDIPVAAGAKQPLIKPFEDAARIHGESGMPGYDFGDDYGKPLDKTAVEALHDAIMAEDEVILVPTGSYTNIALLFSEYPEVKSHIKQIVAMGGSFSGGNMTSAAEFNVFTDPDAAKIMYNAGVPIVTVGLDVTLKALLTADTIEKLGSLNKTGEMLHGLITHYNDGNDQGRPMHDVNTIFYLLHPEAFTTKDMWVDIQTDGPAIGATVGDIRAAYHDGKTNAKVCLDIDAEYFNKWFLEEVSKMK
notes: E. coli BL21(DE3), pET24a(+); tetramer (121 kDa)
Work on B4 yielded a Km [5] of 420 ± 50 µM, a kcat [5] of 118 ± 4 s⁻¹ and a Km [6] of 1200 ± 200 µM. For the same protein, the kcat [6] was 57 ± 8 s⁻¹, the Km [7] was 2500 ± 600 µM and the kcat [7] was 30 ± 5 s⁻¹. It also gave a Km [8] of 320 ± 40 µM, a kcat [8] of 167 ± 6 s⁻¹ and a Km (purified protein) of 680 ± 80 µM. It also gave a kcat (purified protein) of 112 ± 4 s⁻¹.
